B1: HDV Ribozyme (parent)
chain: GGCCGGCAUGGUCCCAGCCUCCUCGCUGGCGCCGGCUGGGCAACAUUCCGAGGGGACCGUCCCCUCGGUAAUGGCGAAUGGGACCCA

Variants of: B1
Experiment: self-cleavage, relative activity (ratio to wild type); higher = more cleavage; co-transcriptional

Row | Variant | self-cleavage
1 | C26A U37G | 0.19
2 | A45G G73A | 0.966
3 | G10A A71C | 0.456
4 | C3U C66A | 0.69
5 | U37A A43U | 0.0437
6 | C66G G81A | 0.408
7 | C66G G81C | 0.193
8 | C24U U47C | 0.739
9 | G52A A78G | 0.604
10 | G52A C64A | 0.786
11 | C21G A87U | 0.0723
12 | U9C C22A | 0.192
13 | C36U G53C | 0.815
14 | C32G C84A | 0.0386
15 | C18A U23C | 0
16 | G11A C49A | 0.363
17 | G52U C61G | 0.927
18 | A43C A56C | 0.59
19 | A70G A71G | 0.918
20 | G5A C48A | 0.0437
21 | C13U G17A | 0.623
22 | C13U G17U | 0.612
23 | U20G U65C | 0.222
24 | U46G C61A | 0.617

Row | Variant | self-cleavage
25 | C4G C58A | 0.429
26 | C44G G53A | 0.665
27 | C7U C24U | 0.261
28 | C24U C66A | 0.525
29 | U23G C24U | 0.314
30 | C18G A83U | 0.101
31 | C21G A43C | 0
32 | U20G G31A | 0
33 | C4G G6C | 0.214
34 | A42G A87G | 0.602
35 | G31U C57A | 0.464
36 | G31A G34C | 0.0272
37 | U12A G53U | 0.318
38 | C49G G55A | 0.976
39 | A16C C75A | 0.133
40 | U20A C64A | 0.113
41 | U27G A87C | 0.869
42 | C22U C63G | 0.782
43 | C7A U37C | 0.719
44 | G1A G29U | 0.0639
45 | U27G A56C | 0.712
46 | G17C C26U | 0.359
47 | G10C U60A | 0.932
48 | C7A C13U | 0.0361

Row | Variant | self-cleavage
49 | C18U U27A | 0.95
50 | G54U U69G | 1.03
51 | A8U A43G | 0.578
52 | A8C C48U | 0.776
53 | G11C G35A | 0.125
54 | C57A G73C | 0.523
55 | G6A C84U | 0.628
56 | G6A C84G | 0.122
57 | C21A G59C | 0.116
58 | U20G G38U | 0.0573
59 | G11C C14U | 0.285
60 | C24U U79C | 0.161
61 | C15U A16C | 1.33
62 | C26A A87U | 1.21
63 | C22U A43U | 0.0831
64 | G2C U69A | 0.0252
65 | G10A C57G | 0.912
66 | C3A C32A | 0.0545
67 | G25C C26G | 0.731
68 | C7U A77C | 0.196
69 | G11C C61A | 0.185
70 | C4G G53C | 0.213
71 | G5A G81A | 0.0978
72 | U46G G50C | 0.429

Row | Variant | self-cleavage
73 | C14U U69G | 0.755
74 | A43C G55C | 0.312
75 | C4G C33U | 0.123
76 | C7G C36U | 0.0504
77 | G73C C75U | 0.0755
78 | U60G A87U | 0.906
79 | U37A A45C | 0.0707
80 | C48A G76U | 1.03
81 | C18U U65A | 0.635
82 | G17A A78G | 0.262
83 | G25U A71G | 0.101
84 | C66G G73C | 0.46
85 | C33A C57A | 0.447
86 | C24U C32G | 0
87 | C19U A51C | 0.204
88 | G1C A77U | 0
89 | U20G C22G | 0.266
90 | U20G C22U | 0.145
91 | C22U U60C | 0.767
92 | G25U G31C | 0.101
93 | C26A C36U | 0.629
94 | U60A G67U | 0.818
95 | C61A U65C | 0.909
96 | G54C U60A | 1.08

Row | Variant | self-cleavage
97 | G35C G53C | 0.208
98 | C24A C62G | 0.554
99 | C58G G80A | 0.332
100 | A42U U65A | 0.434
101 | C21G U47A | 0.0773
102 | C66G G76A | 1.02
103 | C13G C21G | 0.0723
104 | C7A C62U | 0.721
105 | C15U G52U | 1.21
106 | G29A G31A | 0.0723
107 | U65G C84A | 1.04
108 | C58A G82C | 0.17
109 | C32U A56U | 0.76
110 | G17A U37G | 0.172
111 | A71C G80C | 0.302
112 | G39U C63G | 0.507
113 | G28U G55C | 0.138
114 | C26A G68U | 0.929
115 | C3U C86U | 0.718
116 | G55U G81U | 0.272
117 | G28C A78G | 0.26
118 | C58G A77G | 0.831
119 | G11C U65C | 0.297
120 | G38C C61G | 0.219

Row | Variant | self-cleavage
121 | U60G C86G | 1.14
122 | U27A U65C | 0.957
123 | G25A G55C | 0.191
124 | U12A A42U | 0.119
125 | G35A A45U | 0.406
126 | A78C G80A | 0.174
127 | U37A U65A | 0.122
128 | A42C A45C | 0.0462
129 | G5U C30A | 0.0462
130 | C18A G55U | 0.197
131 | G17C G81A | 0.0978
132 | G40A C84A | 0.917
133 | A83C A87C | 0.499
134 | G17A G39C | 0
135 | U46C G50A | 0.698
136 | G38A C64A | 0.0678
137 | U27A C44G | 0.289
138 | C62A G68C | 0.883
139 | A8U C41U | 0.594
140 | G10C C85A | 0.598
141 | A51U A78U | 0.282
142 | G50U G53U | 0.735
143 | G17U A56G | 0.609
144 | C36A A42C | 0.0583

Row | Variant | self-cleavage
145 | C15A G35C | 0.138
146 | G17C G50A | 0.148
147 | C57U U72A | 0.657
148 | G29C C85G | 0.0978
149 | U27C A56G | 0.575
150 | C15A C63G | 0.539
151 | C44G C66U | 0.694
152 | G11U U12C | 0.125
153 | A16C A78U | 0.256
154 | A16C A78C | 0.166
155 | A43C U79C | 0.113
156 | A70U C84G | 0.541
157 | G6C | 0.294
158 | C32G C85U | 0.0692
159 | G2U U69G | 0.0475
160 | U12C C49U | 0.166
161 | G11C C26G | 0.95
162 | G2C U37G | 0
163 | U27G C84A | 0.831
164 | G10U C32U | 0.546
165 | A45C G59U | 0.507
166 | C14G C62A | 0.437
167 | U20G U47G | 0.185
